# T1: M4 micelle
# T1 chain: GPLGLAGKWAAAAKAAAAK
# T2: Peptide 1
# T2 chain: GPLGLAGKWAAAAKAAAAK
# T3: M1 micelle of fluorescein labelled PPA-1 (not fully specified)
# T3 chain: GPLGLAGKWAAAAKAAAAK
# B1: matrix-metalloproteinase 9 (protein)
# chain: MRTPRCGVPDLGRFQTFEGDLKWHHHNITYWIQNYSEDLPRAVIDDAFARAFALWSAVTPLTFTRVYSRDADIVIQFGVAEHGDGYPFDGKDGLLAHAFPPGPGIQGDAHFDDDELWSLGKGVVVPTRFGNADGAACHFPFIFEGRSYSACTTDGRSDGLPWCSTTANYDTDDRFGFCPSERLYTQDGNADGKPCQFPFIFQGQSYSACTTDGRSDGYRWCATTANYDRDKLFGFCPTRADSTVMGGNSAGELCVFPFTFLGKEYSTCTSEGRGDGRLWCATTSNFDSDKKWGFCPDQGYSLFLVAAHEFGHALGLDHSSVPEALMYPMYRFTEGPPLHKDDVNGIRHLYGPRPEPEPRPPTTTTPQPTAPPTVCPTGPPTVHPSERPTAGPTGPPSAGPTGPPTAGPSTATTVPLSPVDDACNVNIFDAIAEIGNQLYLFKDGKYWRFSEGRGSRPQGPFLIADKWPALPRKLDSVFEERLSKKLFFFSGRQVWVYTGASVLGPRRLDKLGLGADVAQVTGALRSGRGKMLLFSGRRLWRFDVKAQMVDPRSASEVDRMFPGVPLDTHDVFQYREKAYFCQDRFYWRVSSRSELNQVDQVGYVTYDILQCPED
# Legend:
# M4 micelle = target: T1, M4 micelle
# Peptide 1 = target: T2, Peptide 1
# [1] = target: T3, M1 micelle of fluorescein labelled PPA-1
protein,measurement,setting,value
B1,Michaelis-Menten kinetics (Kcat and KM) from fluorescein signal increase upon cleavage of the Dabcyl label,M4 micelle,this substrate for MMP-9 is comparable to standard substrate
same,MMP-9 cleavage efficiency (RP-HPLC after 24 hrs),Peptide 1,quantitative
same,MMP-9 cleavage efficiency (RP-HPLC after 24 hrs),[1],estimated to be 41%

# — patent publication US20170000909
